Measurements as given in patent US9803013B2, “Biological materials and uses thereof” (BioInvent International AB, priority 2005, dated 2017).

How the values were obtained:
Reh/KM-3 [1] = assay: IgG binding to pre B cell leukaemia cell line, flow cytometry MFI; parameters: species or system human; settings: Reh/KM-3, pre B cell Leukaemia; control FITC-8 IgG MFI subtracted
Description: (§1) • ^aApoptosis Induction; determined by percentage of viable cells after 6 hour incubation with any of the human antibodies, crosslinked with Goat anti-Human (gamma) Fc specific antibody; −, viability not affected; +, 95-80%; ++, 79-60%; +++, 59-40% viable cells compared to control (human FITC-8 IgG1). […] The cell line dependent MFI value of control human FITC-8 IgG antibody was subtracted from the MFI of each human antibody.

SP-53 [2] = assay: Apoptosis induction by cross-linked IgG (Annexin V/PI); type: cell-based, human; settings: viable cells after 6 hour incubation, crosslinked, compared to control FITC-8 IgG1
Description: (§2) 2×10^5 B lymphoma cells (Raji or Ramos) or Jurkat T cells were incubated with serially diluted and detoxified scFv's in culture medium for 1 h on ice.
(§3) When whole IgGs were used for apoptosis induction, cross-linking reagent was replaced by goat Fab′2 anti-human Fc γ antibody (Jackson ImmunoResearch) with minimal cross-reactivity with non-IgG antibody isotypes (to avoid unspecific cross-linking of endogenous B lymphoma associated surface immunoglobulins) and incubated, as described above, for 6 h.
(§4) Apoptotic cells were, unless otherwise stated, detected by combined staining with Annexin V Alexa Fluor 488 (AV) and Propidium Iodide (PI) (both from Molecular Probes, Invitrogen) and subsequent flow-cytometric analysis, Cells were defined as viable (AV−/PI−), early apoptotic (AV+/PI−) or late apoptotic/necrotic (AV+/PI+). AV and PI signals were recorded in the FL1 and FL2 or FL3 channels (as indicated in the text), respectively, using a FACSCalibur instrument (BD Biosciences).
as §1

WSU-NHL [3] = assay: as above; type: cell-based, human; settings: viable cells after 6 hour incubation, crosslinked, compared to control FITC-8 IgG1
Description: as §2, §3, §4, §1

Reh/KM-3 [4] = assay: as above; type: cell-based, human; settings: viable cells after 6 hour incubation, crosslinked, compared to control FITC-8 IgG1
Description: as §2, §3, §4, §1

Granta 519 [5] = assay: as above; type: cell-based, human; settings: viable cells after 6 hour incubation, crosslinked, compared to control FITC-8 IgG1
Description: as §2, §3, §4, §1

NCEB-1 [6] = assay: as above; type: cell-based, human; settings: viable cells after 6 hour incubation, crosslinked, compared to control FITC-8 IgG1
Description: as §2, §3, §4, §1

RL [7] = assay: as above; type: cell-based, human; settings: viable cells after 6 hour incubation, crosslinked, compared to control FITC-8 IgG1
Description: as §2, §3, §4, §1

DOHH-2 [8] = assay: as above; type: cell-based, human; settings: viable cells after 6 hour incubation, crosslinked, compared to control FITC-8 IgG1
Description: as §2, §3, §4, §1

MC/CAR [9] = assay: as above; type: cell-based, human; settings: viable cells after 6 hour incubation, crosslinked, compared to control FITC-8 IgG1
Description: as §2, §3, §4, §1

SC-1 [10] = assay: as above; type: cell-based, human; settings: viable cells after 6 hour incubation, crosslinked, compared to control FITC-8 IgG1
Description: as §2, §3, §4, §1

Jeko-1 [11] = assay: as above; type: cell-based, human; settings: viable cells after 6 hour incubation, crosslinked, compared to control FITC-8 IgG1
Description: as §2, §3, §4, §1

CL-01 [12] = assay: as above; type: cell-based, human; settings: viable cells after 6 hour incubation, crosslinked, compared to control FITC-8 IgG1
Description: as §2, §3, §4, §1

BJAB [13] = assay: as above; type: cell-based, human; settings: viable cells after 6 hour incubation, crosslinked, compared to control FITC-8 IgG1
Description: as §2, §3, §4, §1

JVM-2 [14] = assay: as above; type: cell-based, human; settings: viable cells after 6 hour incubation, crosslinked, compared to control FITC-8 IgG1
Description: as §2, §3, §4, §1

Rec-1 [15] = assay: as above; type: cell-based, human; settings: viable cells after 6 hour incubation, crosslinked, compared to control FITC-8 IgG1
Description: as §2, §3, §4, §1

SP-53 [16] = assay: IgG binding to B lymphoma cell line, flow cytometry MFI; parameters: species or system human; settings: SP-53, Mantle cell Lymphoma; control FITC-8 IgG MFI subtracted
Description: as §1

WSU-NHL [17] = assay: as above; parameters: species or system human; settings: Follicular Lymphoma, control FITC-8 IgG MFI subtracted
Description: as §1

Granta 519 [18] = assay: as above; parameters: species or system human; settings: Granta 519, Mantle cell Lymphoma; control FITC-8 IgG MFI subtracted
Description: as §1

NCEB-1 [19] = assay: as above; parameters: species or system human; settings: NCEB-1, Mantle cell Lymphoma; control FITC-8 IgG MFI subtracted
Description: as §1

Ramos = assay: as above; parameters: species or system human; settings: Burkitt's Lymphoma, control FITC-8 IgG MFI subtracted
Description: as §1

RL [20] = assay: as above; parameters: species or system human; settings: Follicular Lymphoma, control FITC-8 IgG MFI subtracted
Description: as §1

Daudi = assay: as above; parameters: species or system human; settings: Burkitt's Lymphoma, control FITC-8 IgG MFI subtracted
Description: as §1

Raji = assay: as above; parameters: species or system human; settings: Burkitt's Lymphoma, control FITC-8 IgG MFI subtracted
Description: as §1

DOHH-2 [21] = assay: as above; parameters: species or system human; settings: DOHH-2, Follicular Lymphoma; control FITC-8 IgG MFI subtracted
Description: as §1

SC-1 [22] = assay: as above; parameters: species or system human; settings: SC-1, Follicular Lymphoma; control FITC-8 IgG MFI subtracted
Description: as §1

Jeko-1 [23] = assay: as above; parameters: species or system human; settings: Jeko-1, Mantle cell Lymphoma; control FITC-8 IgG MFI subtracted
Description: as §1

CL-01 [24] = assay: as above; parameters: species or system human; settings: CL-01, Burkitt's Lymphoma; control FITC-8 IgG MFI subtracted
Description: as §1

BJAB [25] = assay: as above; parameters: species or system human; settings: Burkitt's Lymphoma, control FITC-8 IgG MFI subtracted
Description: as §1

JVM-2 [26] = assay: as above; parameters: species or system human; settings: JVM-2, Mantle cell Lymphoma; control FITC-8 IgG MFI subtracted
Description: as §1

Rec-1 [27] = assay: as above; parameters: species or system human; settings: Rec-1, Mantle cell Lymphoma; control FITC-8 IgG MFI subtracted
Description: as §1

MC/CAR [28] = assay: IgG binding to multiple myeloma cell line, flow cytometry MFI; parameters: species or system human; settings: control FITC-8 IgG MFI subtracted
Description: as §1

Row | Molecule | MFI (Reh/KM-3 [1]) | Apoptosis Induction (SP-53 [2]) | Apoptosis Induction (WSU-NHL [3]) | Apoptosis Induction (Reh/KM-3 [4]) | Apoptosis Induction (Granta 519 [5]) | Apoptosis Induction (NCEB-1 [6]) | Apoptosis Induction (RL [7]) | Apoptosis Induction (DOHH-2 [8]) | Apoptosis Induction (MC/CAR [9]) | Apoptosis Induction (SC-1 [10]) | Apoptosis Induction (Jeko-1 [11]) | Apoptosis Induction (CL-01 [12]) | Apoptosis Induction (BJAB [13]) | Apoptosis Induction (JVM-2 [14]) | Apoptosis Induction (Rec-1 [15]) | MFI (SP-53 [16]) | MFI (WSU-NHL [17]) | MFI (Granta 519 [18]) | MFI (NCEB-1 [19]) | MFI (Ramos) | other results
1 | B11: fully human IgG1 antibody specific for ICAM-1; VH and VL sequences of FIG. 10 (SEQ ID NOs. 6 and 8) (antibody, listed as Homo sapiens, V domains shown) VH: EVQLLESGGGLVQPGGSLRLSCAASGFTFSNAWMSWVRQAPGKGLEWVAFIWYDGSNKYYADSVKGRFTISRDNSKNTLYLQMNSLRAEDTAVYYCARYSGWYFDYWGQGTLVTVSS VL: QSVLTQPPSASGTPGQRVTISCTGSSSNIGAGYDVHWYQQLPGTAPKLLIYDNNNRPSGVPDRFSGSKSGTSASLAISGLRSEDEADYYCQSYDSSLSAWLFGGGTKLTVLG | 20 | − | − | − | + (95-80%) | + (95-80%) | − | − | + (95-80%) | − | + (95-80%) | ++ (79-60%) | + (95-80%) | − | − | 90 | 0 | 260 | 340 | 100 | MFI (RL [20]): 100; MFI (Daudi): 150; MFI (Raji): 420; MFI (DOHH-2 [21]): 100; MFI (SC-1 [22]): 0; MFI (Jeko-1 [23]): 30; MFI (CL-01 [24]): 600; MFI (BJAB [25]): 310; MFI (JVM-2 [26]): 100; MFI (Rec-1 [27]): 380; MFI (MC/CAR [28]): 120
2 | C11: fully human IgG1 antibody specific for surface IgM; VH and VL sequences of FIG. 11 (SEQ ID NOs. 10 and 12) (antibody, listed as Homo sapiens, V domains shown) VH: EVQLLESGGGLVQPGGSLRLSCAASGFTFGSYEMNWVRQAPGKGLEWVSVIYSGGSTYYADSVEGRFTISRDNSKNTLYLQMNSLRAEDTAVYYCARDTNPYYYYGMDVWGQGTLVTVSS VL: QSVLTQPPSASGTPGQRVTISCSGSSSNIGNNAVNWYQQLPGTAPKLLIYRNNQRPSGVPDRFSGSKSGTSASLAISGLRSEDEADYYCQSYDSSLNGQVFGGGTKLTVLG | 0 | − | − | − | + (95-80%) | − | − | − | − | − | ++ (79-60%) | + (95-80%) | + (95-80%) | − | − | 360 | 60 | 60 | 10 | 240 | MFI (RL [20]): 210; MFI (Daudi): 450; MFI (Raji): 20; MFI (DOHH-2 [21]): 90; MFI (SC-1 [22]): 50; MFI (Jeko-1 [23]): 1040; MFI (CL-01 [24]): 60; MFI (BJAB [25]): 510; MFI (JVM-2 [26]): 10; MFI (Rec-1 [27]): 900; MFI (MC/CAR [28]): 0
